This note sets out measurements from article PMC7610691 (Nature structural & molecular biology, 2020).

For test [1], the target named is T1, Smc2 (S. cerevisiae condensin subunit) (S. cerevisiae, UniProt P38989 1-1170).
T1 sequence: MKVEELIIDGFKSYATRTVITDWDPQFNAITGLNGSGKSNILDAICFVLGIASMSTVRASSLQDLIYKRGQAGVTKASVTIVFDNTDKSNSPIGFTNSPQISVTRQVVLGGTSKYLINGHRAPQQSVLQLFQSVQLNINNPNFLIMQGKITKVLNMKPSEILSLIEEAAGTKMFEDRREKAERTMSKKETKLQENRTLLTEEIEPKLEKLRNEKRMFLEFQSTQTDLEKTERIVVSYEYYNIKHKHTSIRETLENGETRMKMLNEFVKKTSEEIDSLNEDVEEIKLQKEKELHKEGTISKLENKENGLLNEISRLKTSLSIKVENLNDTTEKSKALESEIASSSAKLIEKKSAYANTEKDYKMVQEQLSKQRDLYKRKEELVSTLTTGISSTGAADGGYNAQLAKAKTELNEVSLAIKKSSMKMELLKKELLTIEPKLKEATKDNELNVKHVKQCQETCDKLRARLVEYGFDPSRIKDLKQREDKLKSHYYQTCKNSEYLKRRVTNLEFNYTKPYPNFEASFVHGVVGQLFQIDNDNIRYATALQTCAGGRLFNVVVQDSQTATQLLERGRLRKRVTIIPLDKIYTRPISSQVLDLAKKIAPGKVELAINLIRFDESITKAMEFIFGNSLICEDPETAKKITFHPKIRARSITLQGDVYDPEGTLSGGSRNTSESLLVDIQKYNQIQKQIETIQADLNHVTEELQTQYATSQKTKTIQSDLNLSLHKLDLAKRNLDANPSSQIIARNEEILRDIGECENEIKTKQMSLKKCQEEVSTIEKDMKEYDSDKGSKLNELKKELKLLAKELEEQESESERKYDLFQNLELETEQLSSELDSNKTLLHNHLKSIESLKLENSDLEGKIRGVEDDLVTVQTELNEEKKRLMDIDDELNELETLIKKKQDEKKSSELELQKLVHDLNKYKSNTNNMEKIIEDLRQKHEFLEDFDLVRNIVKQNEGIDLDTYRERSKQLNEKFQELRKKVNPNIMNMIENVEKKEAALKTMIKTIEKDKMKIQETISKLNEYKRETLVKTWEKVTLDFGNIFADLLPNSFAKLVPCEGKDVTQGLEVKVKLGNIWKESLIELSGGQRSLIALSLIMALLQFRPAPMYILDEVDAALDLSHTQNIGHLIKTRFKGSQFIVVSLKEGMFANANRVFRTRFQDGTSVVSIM
The experiment in a line: cryo-EM structure.

For test [2], the target named is T2, Ycg1 (S. cerevisiae condensin HEAT-repeat subunit) (S. cerevisiae, UniProt Q06680 1-1035).
T2 sequence: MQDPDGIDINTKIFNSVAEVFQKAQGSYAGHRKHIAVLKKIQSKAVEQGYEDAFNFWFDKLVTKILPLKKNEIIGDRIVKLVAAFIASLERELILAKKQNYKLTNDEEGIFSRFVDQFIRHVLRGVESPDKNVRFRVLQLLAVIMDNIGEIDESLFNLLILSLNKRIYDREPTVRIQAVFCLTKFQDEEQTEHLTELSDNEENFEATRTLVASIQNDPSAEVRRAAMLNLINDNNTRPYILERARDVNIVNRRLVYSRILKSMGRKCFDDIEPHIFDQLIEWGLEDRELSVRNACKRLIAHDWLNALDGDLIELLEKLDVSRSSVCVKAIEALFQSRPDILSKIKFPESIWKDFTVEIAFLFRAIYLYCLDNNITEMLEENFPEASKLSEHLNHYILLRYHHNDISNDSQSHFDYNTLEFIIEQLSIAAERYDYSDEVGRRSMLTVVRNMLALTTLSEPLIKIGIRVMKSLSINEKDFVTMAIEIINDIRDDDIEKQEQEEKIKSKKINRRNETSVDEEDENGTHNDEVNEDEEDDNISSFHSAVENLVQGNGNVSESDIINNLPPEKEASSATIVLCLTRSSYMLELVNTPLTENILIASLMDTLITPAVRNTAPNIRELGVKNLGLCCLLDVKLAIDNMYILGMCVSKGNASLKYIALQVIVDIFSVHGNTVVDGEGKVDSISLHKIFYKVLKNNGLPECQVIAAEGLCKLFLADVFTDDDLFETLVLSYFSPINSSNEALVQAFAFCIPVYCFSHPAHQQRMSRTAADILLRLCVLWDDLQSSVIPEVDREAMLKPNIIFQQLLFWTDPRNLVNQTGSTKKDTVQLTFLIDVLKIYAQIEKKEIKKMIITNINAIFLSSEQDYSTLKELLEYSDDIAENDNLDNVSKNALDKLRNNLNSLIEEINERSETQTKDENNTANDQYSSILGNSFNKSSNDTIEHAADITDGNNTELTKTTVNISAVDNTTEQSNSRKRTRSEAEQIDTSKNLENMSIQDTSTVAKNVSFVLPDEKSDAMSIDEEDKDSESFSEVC
The experiment in a line: cryo-EM structure.

B1: Brn1 (S. cerevisiae condensin kleisin subunit) (natural protein)
chain: MTTQLRYENNDDDERVEYNLFTNRSTMMANFEEWIKMATDNKINSRNSWNFALIDYFYDLDVLKDGENNINFQKASATLDGCIKIYSSRVDSVTTETGKLLSGLAQRKTNGASNGDDSNGGNGEGLGGDSDEANIEIDPLTGMPISNDPDVNNTRRRVYNRVLETTLVEFETIKMKELDQELIIDPLFKKALVDFDEGGAKSLLLNTLNIDNTARVIFDASIKDTQNVGQGKLQRKEEELIERDSLVDDENEPSQSLISTRNDSTVNDSVISAPSMEDEILSLGMDFIKFDQIAVCEISGSIEQLRNVVEDINQAKDFIENVNNRFDNFLTEEELQAAVPDNAEDDSDGFDMGMQQELCYPDENHDNTSHDEQDDDNVNSTTGSIFEKDLMAYFDENLNRNWRGREHWKVRNFKKANLVNKESDLLEETRTTIGDTTDKNTTDDKSMDTKKKHKQKKVLEIDFFKTDDSFEDKVFASKGRTKIDMPIKNRKNDTHYLLPDDFHFSTDRITRLFIKPGQKMSLFSHRKHTRGDVSSGLFEKSTVSANHSNNDIPTIADEHFWADNYERKEQEEKEKEQSKEVGDVVGGALDNPFEDDMDGVDFNQAFEGTDDNEEASVKLDLQDDEDHKFPIRENKVTYSRVSKKVDVRRLKKNVWRSINNLIQEHDSRKNREQSSNDSETHTEDESTKELKFSDIIQGISKMYSDDTLKDISTSFCFICLLHLANEHGLQITHTENYNDLIVNYEDLATTQAAS
Consider B1, for which the binding result in test [1] and in test [2] was “binds” in each case.
